The values that follow come from patent US20230399416A1 (MIRIMGENE, published 2023).

In experiment [1] the target is T1, human WARS1 recombinant protein (human, UniProt P23381 1-471, limits assumed).
T1 construct: In the immunoblot the endogenous WARS1 of THP-1 human monocytes was also detected; also called human recombinant protein; tryptophanyl-tRNA synthetase 1, cytoplasmic
T1 sequence (looked up): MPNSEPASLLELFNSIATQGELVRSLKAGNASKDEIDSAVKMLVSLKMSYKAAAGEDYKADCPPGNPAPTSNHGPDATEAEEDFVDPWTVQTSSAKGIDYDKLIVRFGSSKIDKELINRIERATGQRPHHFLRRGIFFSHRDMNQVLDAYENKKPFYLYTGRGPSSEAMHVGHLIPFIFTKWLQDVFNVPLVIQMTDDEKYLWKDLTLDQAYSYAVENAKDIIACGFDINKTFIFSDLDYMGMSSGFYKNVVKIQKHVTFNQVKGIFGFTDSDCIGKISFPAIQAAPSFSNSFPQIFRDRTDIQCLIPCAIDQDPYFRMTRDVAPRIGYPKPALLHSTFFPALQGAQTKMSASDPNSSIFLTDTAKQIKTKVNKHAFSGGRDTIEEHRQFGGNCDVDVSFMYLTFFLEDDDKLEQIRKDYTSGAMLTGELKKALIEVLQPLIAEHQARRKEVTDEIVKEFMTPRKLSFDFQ
In words: SPR, Biacore T200, CM5 chip, serially diluted GKB101 injected. Here is the method:
(§1) 1) SPR: Binding ability was measured using Series S Sensor CM5 Chip (GE Healthcare Life Sciences) and GE Bioacore T200. A HBS-EP buffer (GE Healthcare Life Sciences) was used. After injecting serially diluted GKB101 or buffer for 1-10 minutes at a flow rate of 30 μL/min, the analyte was washed for 20 minutes.
(In general: Surface plasmon resonance follows binding to a sensor surface in real time, without labels.)

The target of experiment [2] is T2, mouse WARS1 recombinant protein (mouse, UniProt P32921 1-481, limits assumed).
T2 construct: In the immunoblot the endogenous WARS1 of J774.1A mouse macrophages was also detected; also called mouse recombinant protein
T2 sequence (looked up): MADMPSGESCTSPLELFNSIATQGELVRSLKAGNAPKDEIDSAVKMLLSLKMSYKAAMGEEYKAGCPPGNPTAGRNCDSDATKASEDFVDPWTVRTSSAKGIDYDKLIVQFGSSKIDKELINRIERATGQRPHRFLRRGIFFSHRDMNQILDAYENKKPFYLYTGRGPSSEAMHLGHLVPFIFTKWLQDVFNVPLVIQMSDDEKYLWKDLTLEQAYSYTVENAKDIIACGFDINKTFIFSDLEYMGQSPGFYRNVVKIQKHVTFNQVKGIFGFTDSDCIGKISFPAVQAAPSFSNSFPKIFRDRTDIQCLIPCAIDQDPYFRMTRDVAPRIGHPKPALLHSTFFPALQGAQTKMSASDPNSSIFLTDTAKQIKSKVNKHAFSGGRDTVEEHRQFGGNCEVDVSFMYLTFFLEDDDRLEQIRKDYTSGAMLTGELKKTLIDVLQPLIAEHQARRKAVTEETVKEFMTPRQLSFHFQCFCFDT
Described as above. Here is the method: as §1

B1: GKB101 (antibody, IgG1, V domains shown)
VH: EVQLLESGGGLVQPGGSLRLSCAASGFTFSSYDMSWVRQAPGKGLEWVSAISSGGSSIYYADSVKGRFTISRDNSKNTLYLQMNSLRAEDTAVYYCARDVAWDMLGDFDYWGQGTLVTVSS
VL: QSVLTQPPSASGTPGQRVTISCTGSSSNIGSNYVYWYQQLPGTAPKLLIYANSHRPSGVPDRFSGSKSGTSASLAISGLRSEDEADYYCGAWDDSLSAYVFGGGTKLTVTV
notes: IgG1 made from the selected scFv with the constant regions of herceptin expression vectors, expressed in Expi293F cells; Joined as printed they may lack a few residues at the junctions (VL/CL, CH2/CH3) and at the C-terminus of CH3; also called WARS1-specific antibody; anti-WARS1 antibody
On to B1, for which the results for the Kd in experiment [1] and in experiment [2] were roughly 0.2 nM and roughly 3.76 nM, respectively.

One may read the Kd as a measure of binding affinity in units of concentration.
